Measurements as given in the supplement of paper PMC9170038.

Assays:
MS2 coat protein [1] = assay: apparent KD of MS2 coat protein, switch ON state; designed switch direction (-1 OFF switch, 1 ON switch): -1; higher = weaker reporter binding; settings: FMN input: 0 or 200 uM; Eterna round: R93 (includes R88 designs)
Outline: (§1)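 Apparent KD was obtained for each design as the median of normalised binding-curve fits over its clusters. RNA switches transcribed on-chip from Illumina sequencing clusters were titrated with SNAP-549-labelled MS2 coat protein (twofold steps, 0.7 or 1.5 nM to 3 µM) in 100 mM Tris-HCl pH 7.5, 80 mM KCl, 4 mM MgCl2, without or with constant ligand.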

MS2 coat protein [2] = assay: apparent KD of MS2 coat protein, switch OFF state (with FMN for OFF switches, without FMN for ON switches); designed switch direction (-1 OFF switch, 1 ON switch): -1; higher = weaker reporter binding; settings: FMN input: 0 or 200 uM; Eterna round: R93 (includes R88 designs)
Outline: as §1

MS2 coat protein [3] = assay: apparent KD of MS2 coat protein; designed switch direction (-1 OFF switch, 1 ON switch): 1; higher = weaker reporter binding
Outline: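 Designed RNA switches were transcribed on Illumina chips by stalled E. coli RNA polymerase and titrated with SNAP-549-labelled MS2 coat protein from 0.7 or 1.5 nM, doubling to 3 µM. Step length ran from 0.8–1.5 h at the lowest concentration to 10–20 min at the highest. The apparent KD is the median over clusters for each design, from curve-fitted normalised cluster fluorescence.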

[4] = input ligand: microRNA oligo, concentration not stated
[5] = Eterna round: R95, input ligand: FMN 200 uM
[6] = Eterna round: R95, input ligand: microRNA oligo, concentration not stated
[7] = Eterna round: R95, input ligand: none

Row | Sequence | apparent KD of MS2 coat protein (MS2 coat protein [1]) | apparent KD of MS2 coat protein (MS2 coat protein [2]) | other results
1 | AAAUUGUCAGGAUAUCCAGCUAUACGAAAUAUAUAUACACGGGAGAAGGGACAUGAGGAUCACCCAUGUUUGAA [JR_Exc004_Sub702] | 34 nM | 27.6 nM | –
2 | CACGUACAUGAGGAUCACCCAUGUUAGGAUAUGCCGGGUAAGAGAAAACUAAAAAUCAGCAGAAGGGACGAAAC [Bilbo Confounded 16 - Jieux - Exclusion 1] | 36.7 nM | 32.3 nM | –
3 | AAAUUGUGAGGAUAUCUGGAUAGGAAAAAGAAAACCUAUCCAGAGAAGGCACAUGAGGAUCACCCAUGUAAAAA [JL cataway mod 5] | 61.7 nM | 96.8 nM | –
4 | AAAGGGCGAGGAUAUACAUGAGGAUCACCCAUGUAAAAAACAUAAUAAAAGAAUUUAUGUAGAAGGCGCCCAAA [Ruby 60] | 15.2 nM | 14.4 nM | –
5 | AAGAAGUGAGGAUAUACAUGAAAGAAAGAAAAGAAAAGAAAACAUGAGGAUCACCCAUGUAGAAGGCACAAGAA [EteRNA is fun!] | 28.7 nM | 27.6 nM | –
6 | CAGUGACAUGAGGAUCACCCAUGUUAGGAUAUGCGUGUUAGAAAAAAAAAGUUAAUAAGCAGAAGGAACAGUGG [JR_Exc001_Sub311] | 40.8 nM | 61.6 nM | –
7 | GAAAAGUCAGGAUAUGCAGAUAAAAAAACGAAAAAAAAUCUGCAGAAGGGACAUGAGGAUCACCCAUGUAAAAG [Mat - Exclusion 4 - Mayanna - D110] | 66.3 nM | 54.2 nM | –
8 | GGAAAACAUGAGGAUCACCCAUGUGAGGAUAUCGAUGUCCAAAAAAAAGUGCGGGACUCGAGAAGGCACUUGGA [salish99-ex1-31] | 48.2 nM | 32.5 nM | –
9 | AGCUAGUCAGGAUAUACAAAAUGAUUGCGAAAGCAAUCAACACAUGAGGAUCACCCAUGUAGAAGGGACUAGCA [Mat - Exclusion 2 - JL-Eli mod - D43] | 18.5 nM | 21.1 nM | –
10 | AAAAAGUCAGGAUAUGUACAAAAUAAAAUAAAAAUAAAAGUACAGAAGGGACAUGAGGAUCACCCAUGUAAAAA [Ex 4 May 11] | 38.6 nM | 36.6 nM | –
11 | AACAAGUGAGGAUAUCGGAAAAGUAAAUAAGUAAAACAAAACGAGAAGGCACAUGAGGAUCACCCAUGUAAAUA [JR_Exc004_Sub014] | 17 nM | 17.4 nM | –
12 | AGGAAACAUGAGGAUCACCCAUGUGAGGAUAUAUGAAAGAAAAGAAAAGAAAGAAGAAGUAGAAGGCACAAGAA [Djer] | 27.2 nM | 23.2 nM | –
13 | AAUAUAUUAAGUGAGGAUAUCAUAGAAAAAACAUGAGGAUCACCCAUGUGGGAAACCUGGUCGGGUGAGAAGGCACUUAAUAUAU [Samwise Clockwise 29 - Jieux - Same State 2] (Eterna round: R96, puzzle: Same State 2) | – | – | apparent KD of MS2 coat protein (MS2 coat protein [3]; input ligand: FMN 200 uM): 85.2 nM; apparent KD of MS2 coat protein (MS2 coat protein [3]; [4]): 823 nM; apparent KD of MS2 coat protein (MS2 coat protein [3]; input ligand: none): 1280 nM
14 | UCUUGGUUUUUGCUCGUUUUUUGUGUUGAACAUGAGGAUCACCCAUGUAUUGUACGGUCCAGUUUAAUAAUGGUCCA [JMF 6] (puzzle: Sensor for hsa-mir-208a) | – | – | apparent KD of MS2 coat protein (MS2 coat protein [3]; [5]): 25.9 nM; apparent KD of MS2 coat protein (MS2 coat protein [3]; [6]): 14.4 nM; apparent KD of MS2 coat protein (MS2 coat protein [3]; [7]): 26 nM
15 | GCAGGACGAUAAAACAUCUCACAUGAGGAUCACCCAUGUCGUGAGGAUAUGGAUCCUAAUUGGAUCCAGAAGGCAUGGUCCUGC [Fiskers NG3ss - 24] (Eterna round: R96, puzzle: Same State NG 3) | – | – | apparent KD of MS2 coat protein (MS2 coat protein [3]; input ligand: FMN 200 uM): 13.2 nM; apparent KD of MS2 coat protein (MS2 coat protein [3]; [4]): 13.1 nM; apparent KD of MS2 coat protein (MS2 coat protein [3]; input ligand: none): 20.9 nM
16 | GGUCCAGCCUGAGCUGGACAAAAGCAUGUACAUGAGGAUCACCCAUGUUAUGUACAAGCUUUUUGCUCGUCUUAAAA [JL mod - D87 - 10] (puzzle: Sensor for hsa-mir-208a) | – | – | apparent KD of MS2 coat protein (MS2 coat protein [3]; [5]): 172 nM; apparent KD of MS2 coat protein (MS2 coat protein [3]; [6]): 12.6 nM; apparent KD of MS2 coat protein (MS2 coat protein [3]; [7]): 231 nM
17 | AAUUAAUUAAUUAAGUACAUGAGGAUCACCCAUGUAAGUGAUCAGGAUAUCAGCUCGUUUAGAGCUGAGAAGGGAUCCAUGUAC [SSNG3/15-A3] (Eterna round: R96, puzzle: Same State NG 3) | – | – | apparent KD of MS2 coat protein (MS2 coat protein [3]; input ligand: FMN 200 uM): 360 nM; apparent KD of MS2 coat protein (MS2 coat protein [3]; [4]): 297 nM; apparent KD of MS2 coat protein (MS2 coat protein [3]; input ligand: none): 404 nM
18 | AUUUUUAAUGCAGGAUAUGAUUAACAUGAGGAUCACCCAUGUGGUGUUGUGAGUAAGGAGAGUGAUCAGAAGGGCAUUUUUUGU [JMF's solution 87] (Eterna round: R96, puzzle: Same State NG 2) | – | – | apparent KD of MS2 coat protein (MS2 coat protein [3]; input ligand: FMN 200 uM): 827 nM; apparent KD of MS2 coat protein (MS2 coat protein [3]; [4]): 301 nM; apparent KD of MS2 coat protein (MS2 coat protein [3]; input ligand: none): 621 nM
